How the values were obtained:
[1] = molecular target: T1, HSA (human serum albumin) (Homo sapiens, UniProt P02768); test: Biosensor (Biacore) analysis of ABD variants' binding to human serum albumin (Example 2); settings: N-terminal His6-tagged proteins injected at 25 nM; HSA immobilized 360 RU; qualitative measure of relative affinities
Description: (§1) ABDwt and the twelve ABD variants, all sub-cloned in pAY442 as described above, were expressed in E. coli BL21(DE3) as fusions to an N-terminal His6-tag and purified by IMAC. A colony of each ABD variant was used to inoculate 5 ml TSB medium supplemented with 50 μg/ml kanamycin. The cultures were grown over night at 37° C. The following day, 50 μl of each culture were inoculated separately to 100 ml TSB+YE medium supplemented with 50 μg/ml kanamycin in a 1 liter flask. The cultures were grown at 100 rpm at 37° C. to an OD600 of 0.7-1, after which IPTG was added to a final concentration of 0.5 mM and cells were incubated at room temperature over night at 100 rpm. Cultures were harvested by centrifugation at 8000 g for 5 minutes and pellets were stored in a freezer until protein preparation.
(§2) The His6-tagged proteins were IMAC purified under denatured conditions using Ni-NTA Superflow columns and QIAsoft 4.1, protein/Ni-NTA Superflow 96 denaturing large scale 2 Vac4-24 samples, on a Biorobot 3000 (Qiagen). The buffer was exchanged to PBS using a dialysis cassette (Slide-A-Lyser, 3.5 kDa; Pierce cat. no. 66330) by dialyzing against 5 l PBS for 2 h followed by an additional dialysis over night. […]

[2] = molecular target: T1, HSA (human serum albumin); test: Biosensor analysis for binding kinetics to human serum albumin (Example 3); settings: His6-tagged; HSA immobilized 450 RU; values estimated
Description: ABD00003, ABD00053, ABD00239 and ABDwt were expressed in E. coli BL21(DE3) cells as fusions to an N-terminal His6-tag using constructs as described in Example 2, and purified by IMAC. A colony of each ABD variant was used to inoculate 10 ml TSB medium supplemented with 50 μg/ml kanamycin. The cultures were grown over night at 37° C. The following day, 500 μl of each culture were inoculated separately to 500 ml TSB+YE medium supplemented with 50 μg/ml kanamycin in a 5 liter flask. The cultures were grown at 100 rpm and 37° C. to an OD600 of 0.7-1, which was followed by addition of IPTG to a final concentration of 0.5 mM and incubated at room temperature over night. Cultures were harvested by centrifugation at 8000 g for 5 minutes and pellets were stored at −20° C. until protein preparation.
The His6-tagged proteins were IMAC purified under denaturing conditions using His-Gravitrap™ kit (GE Healthcare). The pellets were re-suspended (vortexed) in 20 ml of the denaturation buffer B-7M (100 mM NaH2PO4, 10 mM Tris-Cl, 7 M urea, pH 8) and 8 μl benzonase was added.
Biosensor analysis on a Biacore2000 instrument (Biacore) was performed with HSA (SIGMA, cat. no. A3782-5G) immobilized by amine coupling onto the carboxylated dextran layer on surfaces of a CM-5 chip (research grade; Biacore), according to the manufacturer's recommendations. […] One cell surface on the chip was activated and deactivated and used as reference cell during injections. The purified His6-ABD samples were diluted in HBS-EP (Biacore) to 4, 10, 40, 100 and 400 nM for ABDwt and to 0.2, 0.8, 2, 5 and 20 nM for the selected ABD variants. The samples were injected at a constant flow-rate of 25 μl/min for 10 min, followed by injection of HBS-EP for 3 hours. The surfaces were regenerated with two injections of 20 μl of 5 and 10 mM HCl.

[3] = molecular target: MSA (mouse serum albumin) (Mus musculus, UniProt P07724); test: Biosensor (Biacore) analysis of ABD variants' binding to mouse serum albumin; settings: N-terminal His6-tagged proteins injected at 25 nM; MSA immobilized 350 RU; qualitative measure of relative affinities
Description: as §1, §2

[4] = Solubility in aqueous solvents (general statement); type: physicochemical
Text: For example, 30% organic solvent is needed to keep the conjugate in solution.

Chain of MSA (mouse serum albumin) (P07724 25-608): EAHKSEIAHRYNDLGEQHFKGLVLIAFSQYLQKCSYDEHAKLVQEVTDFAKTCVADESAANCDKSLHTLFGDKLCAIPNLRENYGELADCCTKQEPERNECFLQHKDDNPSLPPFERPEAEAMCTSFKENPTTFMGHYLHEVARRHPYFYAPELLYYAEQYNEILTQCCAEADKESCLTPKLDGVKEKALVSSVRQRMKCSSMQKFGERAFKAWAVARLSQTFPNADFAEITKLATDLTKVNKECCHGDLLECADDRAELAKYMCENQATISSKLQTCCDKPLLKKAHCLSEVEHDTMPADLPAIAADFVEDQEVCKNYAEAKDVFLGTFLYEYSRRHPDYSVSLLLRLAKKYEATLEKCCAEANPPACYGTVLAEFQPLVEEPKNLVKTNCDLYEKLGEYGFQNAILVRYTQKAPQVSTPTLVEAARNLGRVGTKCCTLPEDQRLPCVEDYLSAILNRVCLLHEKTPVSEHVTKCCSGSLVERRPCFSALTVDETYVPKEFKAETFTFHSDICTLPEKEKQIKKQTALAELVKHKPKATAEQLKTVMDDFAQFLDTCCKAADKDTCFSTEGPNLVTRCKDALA

Row | Molecule | Kd [1] | Kd [2] | ka to HSA [2] | kd to HSA [2] | Kd [3] | solubility in aqueous solvents [4]
1 | ABDwt | 1.5 nM | 1.2 nM | 550000 M/s | 0.00065 s⁻¹ | 4.9 nM | 
2 | COc1cccc2c1C(=O)c1c(O)c3c(c(O)c1C2=O)C[C@@](O)(C(=O)CO)CC3O[C@H]1CC(NC(=O)OCc2ccc(NC(=O)OCc3ccc(NC(=O)[C@H](CCCNC(N)=O)NC(=O)[C@@H](NC(=O)CCCCCN4C(=O)C=CC4=O)C(C)C)cc3)cc2)C(O)[C@@H](C)O1 (stereo partly drawn) [free linker, Maleimide-Spacelinker-Doxorubicin] |  |  |  |  |  | low solubility
